Experimental data: PMC8038991, “R-catcher, a potent molecular tool to unveil the arginylome” (Cellular and Molecular Life Sciences: CMLS, 2021)
“Also recorded” adds a separate entry of the source.

Tests used:
R-catcher [1] = assay: R-catcher pulldown of putative arginylated ER proteins, HeLa; format: binding, human; conditions: 5 µM MG132 plus 100 nM TG, RA competition, Fig. 6a
Experimental: (§1) For small-scale R-catcher pull-down assays, 300 µg of purified R-catcher was conjugated with 120 µl of Strep-Tactin sepharose resin by incubating overnight at 4 °C. To test R-catcher’s ability to capture known arginylated proteins, such as R-BiP, R-PDI, R-nsP4 and R-RGS4, plasmids encoding Ub-X-(BiP, PDI and nsP4) or MX-RGS4 (X = Arg or Val) were transiently transfected into HEK293 cells. After 24 h, cells were treated with 10 µM MG132 and 100 nM thapsigargin for another 24 h. Cells were harvested and lysed in hypotonic buffer and 300 µg total protein was incubate with 25 µl R-catcher-sepharose resin in binding buffer (20 mM HEPES pH 7.9, 0.05% Tween 20, 10% glycerol, 0.2 M KCl, protease inhibitor and phosphatase inhibitor) for 3 h with gentle rotation at 4 °C. After three washes with binding buffer, bound proteins were dissociated with 2 × SDS sample buffer and boiling at 100 °C and subjected to immunoblotting using anti-myc or flag antibodies.
Plasmids encoding the proteins were transiently transfected to HeLa cells for 24 h and stimulated with 5 µM MG132 plus 100 nM TG for another 24 h. Cell lysates were incubated with R-catcher immobilized on tactin beads for 3 h. After wash, bound proteins were eluted with 2 × SDS sample buffer followed by boiling at 100 °C for 10 min and visualized by western blot analysis. b R-catcher pulldown assays to validate ATE1-dependent arginylation of […]1, PRDX4, FBLN1 and CLUS. Plasmids encoding […]1, PRDX4, FBLN1 and CLUS were transiently transfected into + / + and ATE1^−/− MEFs for 24 h and stimulated with 5 µM MG132 plus 100 nM TG for another 9 h. Cell lysates were subjected to R-catcher pulldown, and bound proteins were detected by western blot analysis. c R-catcher pull-down assays to evaluate if the arginylation of FBNL1, SERPINH1, CLUS and PRDX4 is induced in response to MG132 plus thapsigargin. d X-peptide pulldown assays to confirm no interaction of R-catcher with Nt-Ala19 of SERPINH1 peptides and Nt-Trp38 of PRDX4 peptides. X-peptides where X is A19 (SignalP predicted P1’ site), E20 (next possible P1’ site predicted by PrediSi) or R19 (Arginylated form of Glu) for SERPINH1 and W38 (SignalP predicted P1’ site), E39 (next possible P1’ site predicted by PrediSi) or R38 (Arginylated form) for PRDX4. Biotinylated X-peptides immobilized on streptavidin agarose beads were incubated with affinity-purified GST-ZZ ([…]). Bound GST-ZZ (N132D) was detected by immunoblotting. e Identification of arginylated sites employing mutational analysis. Predicted P1’ sites of SERPINH1, PRDX4, CLUS and FBLN1 were substituted to Gly, and the inhibitory effect of the mutation on binding with R-catcher was examined by performing R-catcher pulldown assays

[2] = Identification of arginylation sites, GelNrich and in-gel digestion LC-MS/MS
Excerpt: Upon separation of the immunoprecipitated protein by SDS-PAGE and staining with Coomassie Blue, the corresponding protein band was excised, half of which was subjected to GelNrich and the other half to conventional in-gel digestion GelNrich is an N-terminal peptide enrichment method based on in-gel digestion. The method includes in-gel protein level labeling of primary amines using d6-acetic anhydride and post-digestion negative selection of labeled N-terminal peptide(s) using N-hydroxysuccinimide activated agarose beads. Peptides recovered from GelNrich or in-gel digestion were dried in a vacuum evaporator and reconstituted in 0.1% formic acid. An aliquot was injected from a cooled (10 °C) auto-sampler into a reversed-phase EASY-Spray column (25 cm × 75 μm, Thermo Fisher Scientific) on an Eksigent nanoLC-ultra 1D plus system (Danaher Corporation) at a flow rate of 300 nL/min. Prior to use, the column was equilibrated with 96% buffer A (0.1% formic acid in water) and 4% buffer B (0.1% formic acid in acetonitrile). The peptides were eluted with a linear gradient from 4 to 35% buffer B over 60 min and 35–80% buffer B over 2 min followed by an organic wash and aqueous re-equilibration at a flow rate of 300 nL/min with a total run time of 96 min. The HPLC system was coupled to a Q-Exactive mass spectrometer (Thermo Fisher Scientific) operated in a data-dependent acquisition (DDA) mode. Survey full-scan MS spectra (m/z 400–1800) were acquired with a resolution of 70,000. The MS/MS spectra of the 12 most intense ions from the MS1 scan with charge states 1 ~ 5 were acquired with the following options: resolution, 17,500; automatic gain control (AGC) target, 5E4; isolation width, 2.0 m/z; normalized collision energy, 27%; dynamic exclusion duration, 60 s; and ion selection threshold, 4.2E2 counts. Source ionization parameters were as follow: spray voltage, 1.9 kV; capillary temperature, 275 °C; and s-lens level, 50.0. […]

R-catcher [3] = assay: R-catcher pulldown of P1' site Gly mutants; format: binding, human; conditions: E20 SERPINH1, E30 (printed) PRDX4, D23 CLUS, D30 FBLN1 to Gly, Fig. 6e
Experimental: as §1
(§2) Plasmids encoding the proteins were transiently transfected to HeLa cells for 24 h and stimulated with 5 µM MG132 plus 100 nM TG for another 24 h. Cell lysates were incubated with R-catcher immobilized on tactin beads for 3 h. After wash, bound proteins were eluted with 2 × SDS sample buffer followed by boiling at 100 °C for 10 min and visualized by western blot analysis. b R-catcher pulldown assays to validate ATE1-dependent arginylation of […]1, PRDX4, FBLN1 and CLUS. […] Cell lysates were subjected to R-catcher pulldown, and bound proteins were detected by western blot analysis. c R-catcher pull-down assays to evaluate if the arginylation of FBNL1, SERPINH1, CLUS and PRDX4 is induced in response to MG132 plus thapsigargin. d X-peptide pulldown assays to confirm no interaction of R-catcher with Nt-Ala19 of SERPINH1 peptides and Nt-Trp38 of PRDX4 peptides. […] Bound GST-ZZ (N132D) was detected by immunoblotting. e Identification of arginylated sites employing mutational analysis. […]

R-catcher [4] = assay: R-catcher pulldown in +/+ and ATE1-/- MEFs; format: binding; conditions: +/+ versus ATE1-/- MEFs, MG132 plus TG, 9 h, Fig. 6b
Experimental: as §1, §2

R-catcher [5] = assay: Small-scale R-catcher pulldown of known arginylated proteins; format: binding, human; conditions: HEK293 cells, R-catcher on tactin beads, immunoblot, Fig. 4d
Experimental: as §1

B1: SERPINH1: serpin H1 (protein, UniProt P50454 19-418, looked up)
Serpin H1: AEVKKPAAAAAPGTAEKLSPKAATLAERSAGLAFSLYQAMAKDQAVENILVSPVVVASSLGLVSLGGKATTASQAKAVLSAEQLRDEEVHAGLGELLRSLSNSTARNVTWKLGSRLYGPSSVSFADDFVRSSKQHYNCEHSKINFRDKRSALQSINEWAAQTTDGKLPEVTKDVERTDGALLVNAMFFKPHWDEKFHHKMVDNRGFMVTRSYTVGVMMMHRTGLYNYYDDEKEKLQIVEMPLAHKLSSLIILMPHHVEPLERLEKLLTKEQLKIWMGKMQKKAVAISLPKGVVEVTHDLQKHLAGLGLTEAIDKNKADLSRMSGKKDLYLASVFHATAFELDTDGNPFDQDIYGREELRSPKLFYADHPFIFLVRDTQSGSLLFIGRLVRPKGDKMRDEL
In the case of B1, the “binding with R-catcher, Nt-Arg dependence” value (“binding with R-catcher” for short) (R-catcher [1]) is reported as “Nt-Arg-dependent binding with R-catcher”, the “arginylation detected by mass spectrometry” value (“arginylation detected” for short) [2] is reported as “not detected” and the “effect of Gly substitution of P1' site on interaction with R-catcher” value (“effect of Gly substitution of P1' site” below) (R-catcher [3]) is reported as “significantly impaired their interaction with R-catcher; also recorded: abolished their binding with R-catcher”. The “capture by R-catcher, ATE1 dependence” value (R-catcher [4]) was “captured by R-catcher in an ATE1-dependent manner”.

B2: LG3BP: lectin galactoside-binding soluble 3-binding protein (protein)
chain: VNDGDMRLADGGATNQGRVEIFYRGQWGTVCDNLWDLTDASVVCRALGFENATQALGRAAFGQGSGPIMLDEVQCTGTEASLADCKSLGWLKSNCRHERDAGVVCTNETRSTHTLDLSRELSEALGQIFDSQRGCDLSISVNVQGEDALGFCGHTVILTANLEAQALWKEPGSNVTMSVDAECVPMVRDLLRYFYSRRIDITLSSVKCFHKLASAYGARQLQGYCASLFAILLPQDPSFQMPLDLYAYAVATGDALLEKLCLQFLAWNFEALTQAEAWPSVPTDLLQLLLPRSDLAVPSELALLKAVDTWSWGERASHEEVEGLVEKIRFPMMLPEELFELQFNLSLYWSHEALFQKKTLQALEFHTVPFQLLARYKGLNLTEDTYKPRIYTSPTWSAFVTDSSWSARKSQLVYQSRRGPLVKYSSDYFQAPSDYRYYPYQSFQTPQHPSFLFQDKRVSWSLVYLPTIQSCWNYGFSCSSDELPVLGLTKSGGSDRTIAYENKALMLCEGLFVADVTDFEGWKAAIPSALDTNSSKSTSSFPCPAGHFNGFRTVIRPFYLTNSSGVD
modifications: left off: myc, end not stated, kept | His, end not stated, state not stated
In the case of B2, the “binding with R-catcher” value (R-catcher [1]) is reported as “no significant binding affinity for R-catcher”.

B3: PRDX4: Peroxiredoxin-4 (protein, UniProt Q13162 38-271, looked up)
Peroxiredoxin-4: WETEERPRTREEECHFYAGGQVYPGEASRVSVADHSLHLSKAKISKPAPYWEGTAVIDGEFKELKLTDYRGKYLVFFFYPLDFTFVCPTEIIAFGDRLEEFRSINTEVVACSVDSQFTHLAWINTPRRQGGLGPIRIPLLSDLTHQISKDYGVYLEDSGHTLRGLFIIDDKGILRQITLNDLPVGRSVDETLRLVQAFQYTDKHGEVCPAGWKPGSETIIPDPAGKLKYFDKLN
In the case of B3, the “binding with R-catcher” value (R-catcher [1]) is reported as “Nt-Arg-dependent binding with R-catcher”, the “arginylation detected” value [2] is reported as “not detected” and the “effect of Gly substitution of P1' site” value (R-catcher [3]) is reported as “significantly impaired their interaction with R-catcher; also recorded: abolished their binding with R-catcher”. For the same molecule, the “capture by R-catcher, ATE1 dependence” value (R-catcher [4]) was “captured by R-catcher in an ATE1-dependent manner”.

B4: RGS4: ATE1 model substrate RGS4 (2nd oxidized Cys) (protein)
chain: RCKGLAGLPASCLRSAKDMKHRLGFLLQKSDSCEHNSSHNKKDKVVICQRVSQEEVKKWAESLENLISHECGLAAFKAFLKSEYSEENIDFWISCEEYKKIKSPSKLSPKAKKIYNEFISVQATKEVNLDSCTREETSRNMLEPTITCFDEAQKKIFNLMEKDSYRRFLKSRFYLDLVNPSSCGAEKQKGAKSSADCASLVPQCA
modifications: oxidized Cys as 2nd residue; left off: myc, end not stated, kept | His, end not stated, state not stated
In the case of B4, the “pulldown by R-catcher, overexpressed substrates” value (R-catcher [5]) is reported as “could pulldown”.

B5: FBLN1: fibulin-1 (protein, UniProt P23142 30-703, looked up)
Fibulin-1: DVLLEACCADGHRMATHQKDCSLPYATESKECRMVQEQCCHSQLEELHCATGISLANEQDRCATPHGDNASLEATFVKRCCHCCLLGRAAQAQGQSCEYSLMVGYQCGQVFQACCVKSQETGDLDVGGLQETDKIIEVEEEQEDPYLNDRCRGGGPCKQQCRDTGDEVVCSCFVGYQLLSDGVSCEDVNECITGSHSCRLGESCINTVGSFRCQRDSSCGTGYELTEDNSCKDIDECESGIHNCLPDFICQNTLGSFRCRPKLQCKSGFIQDALGNCIDINECLSISAPCPIGHTCINTEGSYTCQKNVPNCGRGYHLNEEGTRCVDVDECAPPAEPCGKGHRCVNSPGSFRCECKTGYYFDGISRMCVDVNECQRYPGRLCGHKCENTLGSYLCSCSVGFRLSVDGRSCEDINECSSSPCSQECANVYGSYQCYCRRGYQLSDVDGVTCEDIDECALPTGGHICSYRCINIPGSFQCSCPSSGYRLAPNGRNCQDIDECVTGIHNCSINETCFNIQGGFRCLAFECPENYRRSAATLQQEKTDTVRCIKSCRPNDVTCVFDPVHTISHTVISLPTFREFTRPEEIIFLRAITPPHPASQANIIFDITEGNLRDSFDIIKRYMDGMTVGVVRQVRPIVGPFHAVLKLEMNYVVGGVVSHRNVVNVHIFVSEYWF
For B5, the “binding with R-catcher” value (R-catcher [1]) was “Nt-Arg-dependent binding with R-catcher”, the “arginylation detected” value [2] was “the D30 residue” and the “effect of Gly substitution of P1' site” value (R-catcher [3]) was “significantly impaired their interaction with R-catcher; also recorded: abolished their binding with R-catcher”. The “capture by R-catcher, ATE1 dependence” value (R-catcher [4]) was “captured by R-catcher in an ATE1-dependent manner”.
